Experimental findings from PMC8713289 are described below.

A word on the stoichiometry N: it is a count of units in the complex or per binding partner.

Assay [1] concerns the target Interferon alpha-2a (human) (UniProt P01563). Description: AUC; sedimentation velocity, 50000 rpm, histidine pH 5, 0 or 140 mM NaCl, 0.8, 0.4 and 0.2 mg/mL (A280 = 1, 0.5, 0.25); monomer with a dimer in fast equilibrium with higher oligomers.
For assay [2] the target is unchanged. Description: AUC; sedimentation velocity, 50000 rpm, histidine pH 7.5, 0 or 140 mM NaCl, 0.8, 0.4 and 0.2 mg/mL (A280 = 1, 0.5, 0.25); dimers and larger oligomers in concentration-dependent equilibrium.

For “Interferon alpha-2a (from UniProt P01563 24-188) (natural protein)”, the stoichiometry N in assay [1] is > 2 >=; in assay [2], 2.
